Assay results reported in US20260028424A1 (GRANULAR THERAPEUTICS, published 2026).

Key:
[1] = biological target: T1, human CD203c His-tagged recombinant protein (human, UniProt O14638 49-875, limits assumed); assay: direct binding ELISA on coated recombinant human CD203c
T1 construct: also called ENPP3; not shown: His tag
T1 sequence (looked up): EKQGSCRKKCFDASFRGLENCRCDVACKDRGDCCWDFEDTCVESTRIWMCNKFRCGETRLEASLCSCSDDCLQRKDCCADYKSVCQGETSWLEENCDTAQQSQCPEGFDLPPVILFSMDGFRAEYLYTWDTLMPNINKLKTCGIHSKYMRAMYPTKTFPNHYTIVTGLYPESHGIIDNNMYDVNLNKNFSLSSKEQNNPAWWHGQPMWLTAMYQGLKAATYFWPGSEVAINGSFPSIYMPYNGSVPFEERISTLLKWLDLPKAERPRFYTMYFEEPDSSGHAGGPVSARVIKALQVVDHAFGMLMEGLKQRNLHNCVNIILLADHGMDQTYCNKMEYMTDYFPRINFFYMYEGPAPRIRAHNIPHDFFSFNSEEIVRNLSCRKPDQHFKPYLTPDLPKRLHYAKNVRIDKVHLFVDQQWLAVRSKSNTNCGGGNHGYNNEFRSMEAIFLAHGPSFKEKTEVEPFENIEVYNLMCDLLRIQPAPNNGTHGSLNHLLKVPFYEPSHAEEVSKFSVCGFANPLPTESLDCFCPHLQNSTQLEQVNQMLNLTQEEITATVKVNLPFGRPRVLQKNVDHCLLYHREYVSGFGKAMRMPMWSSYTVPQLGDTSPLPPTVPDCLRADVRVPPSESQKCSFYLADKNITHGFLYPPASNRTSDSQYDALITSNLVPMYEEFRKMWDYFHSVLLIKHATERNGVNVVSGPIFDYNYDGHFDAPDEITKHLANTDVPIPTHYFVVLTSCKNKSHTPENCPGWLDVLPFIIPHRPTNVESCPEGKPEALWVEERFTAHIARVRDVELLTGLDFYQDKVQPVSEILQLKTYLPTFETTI
Description: (§1) Binding and cross-reactivity of the molecules to the human, rhesus, and cynomolgus CD203c was initially assessed by binding ELISA. The human CD203c His-tagged recombinant protein and the rhesus monkey CD203c His-tagged recombinant protein were coated to the surface of MaxiSorp™ flat-bottom 96 well plates at a concentration of 1 μg/ml. The purified samples were titrated in 5-fold serial dilutions starting from 100 nM and allowed to bind to the coated antigens. The IgGs were detected using mouse anti-human IgG conjugated to horseradish peroxidase. Binding signals were visualized with 3,3′,5,5′-Tetramethylbenzidine Substrate Solution (TMB) and the absorbance measured at 450 nm.

[2] = biological target: T2, rhesus monkey CD203c His-tagged recombinant protein (rhesus monkey, UniProt F6TH66 31-874); assay: direct binding ELISA on coated recombinant rhesus CD203c
T2 construct: also called rhesus CD203c; not shown: His tag
T2 sequence: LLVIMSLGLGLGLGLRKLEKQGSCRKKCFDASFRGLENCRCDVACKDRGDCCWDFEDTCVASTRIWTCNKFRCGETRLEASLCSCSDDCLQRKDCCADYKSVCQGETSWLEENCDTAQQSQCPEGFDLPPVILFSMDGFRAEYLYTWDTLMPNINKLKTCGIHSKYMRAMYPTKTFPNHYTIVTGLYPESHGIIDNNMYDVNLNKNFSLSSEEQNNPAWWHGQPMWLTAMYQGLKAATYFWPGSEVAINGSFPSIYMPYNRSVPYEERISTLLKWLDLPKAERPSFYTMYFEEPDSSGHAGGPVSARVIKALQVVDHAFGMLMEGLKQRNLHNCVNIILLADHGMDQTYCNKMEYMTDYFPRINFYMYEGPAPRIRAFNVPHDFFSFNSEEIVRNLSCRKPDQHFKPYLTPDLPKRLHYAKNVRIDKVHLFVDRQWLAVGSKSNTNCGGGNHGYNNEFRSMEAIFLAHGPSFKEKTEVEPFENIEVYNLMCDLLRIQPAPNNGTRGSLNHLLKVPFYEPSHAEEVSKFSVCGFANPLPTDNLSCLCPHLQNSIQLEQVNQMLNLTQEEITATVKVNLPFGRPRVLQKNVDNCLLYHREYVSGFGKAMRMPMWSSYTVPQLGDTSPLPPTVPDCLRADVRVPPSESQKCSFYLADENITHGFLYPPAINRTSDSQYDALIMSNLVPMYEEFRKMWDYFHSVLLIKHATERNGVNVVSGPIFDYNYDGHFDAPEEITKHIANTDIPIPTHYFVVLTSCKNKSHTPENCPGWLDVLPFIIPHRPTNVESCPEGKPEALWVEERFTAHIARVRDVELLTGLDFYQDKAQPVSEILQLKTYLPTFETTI
Description: as §1

[3] = biological target: T3, human CD203c expressed on the surface of KU812 cells (human, UniProt O14638 1-875); assay: flow cytometry on KU812 cells
T3 construct: whole, on cells; also called cell-surface CD203c; cell surface CD203c on KU812 cells
T3 sequence (looked up): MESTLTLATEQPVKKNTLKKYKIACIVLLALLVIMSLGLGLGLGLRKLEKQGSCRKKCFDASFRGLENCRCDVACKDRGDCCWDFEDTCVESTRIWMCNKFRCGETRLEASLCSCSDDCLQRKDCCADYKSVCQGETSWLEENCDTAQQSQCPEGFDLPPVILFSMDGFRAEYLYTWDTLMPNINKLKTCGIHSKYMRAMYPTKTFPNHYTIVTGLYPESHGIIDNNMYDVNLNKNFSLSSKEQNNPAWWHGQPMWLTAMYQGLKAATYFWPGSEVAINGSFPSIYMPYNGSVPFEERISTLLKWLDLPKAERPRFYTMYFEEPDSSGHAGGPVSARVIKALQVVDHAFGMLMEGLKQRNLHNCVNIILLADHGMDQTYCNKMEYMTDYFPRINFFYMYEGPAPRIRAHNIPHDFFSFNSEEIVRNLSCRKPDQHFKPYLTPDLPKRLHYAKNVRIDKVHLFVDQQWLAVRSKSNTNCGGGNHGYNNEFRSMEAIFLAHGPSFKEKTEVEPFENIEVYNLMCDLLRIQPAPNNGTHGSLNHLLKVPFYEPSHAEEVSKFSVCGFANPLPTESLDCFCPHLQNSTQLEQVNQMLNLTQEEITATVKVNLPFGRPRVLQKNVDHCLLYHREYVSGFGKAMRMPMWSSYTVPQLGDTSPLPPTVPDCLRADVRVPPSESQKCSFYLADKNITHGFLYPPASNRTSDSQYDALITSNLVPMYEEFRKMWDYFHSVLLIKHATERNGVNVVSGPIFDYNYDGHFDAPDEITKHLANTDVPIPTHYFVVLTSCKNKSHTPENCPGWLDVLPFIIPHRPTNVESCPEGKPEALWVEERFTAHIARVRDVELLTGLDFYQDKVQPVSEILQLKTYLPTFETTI
Description: All treatments were performed on cells seeded in T75 flasks at a seeding density of 0.3e6/ml. Cells were cultured in the presence of 80 ng/ml of SCF and treated with 20 ng/ml of IL3 24 hours prior to antibody staining. Following SCF/IL3 treatment, cells were harvested and stained with live dead stain (Zombie UV Biolegend 423108). Cells were then stained with a titration of anti-CD203c antibodies/bispecifics or respective isotype controls in a 5-fold dilution series starting at 50 μg/mL and detected with Anti human-Fc AF647 antibody (JIR 109-605-098). Samples were subsequently run on a Yeti analyzer, gating on 10K live cells. Subsequent analysis was performed using FlowJo software and data represented as MFI (median fluorescent intensity).

B1: anti-CD203c 1.27 IgG (parental clone, MH1 common light chain) (antibody, V domains shown)
VH: EVQLVQSGAEVKKPGESLKISCKGSGYRFTSYWIGWVRQMPGKGLEWMGIIYPGDSDTRYSPSFQGQVTISADKSISTAYLQWSSLKASDTAMYYCARKDYYYYAMDVWGQGTTVTVSS
VL: DIQMTQSPSSLSASVGDRVTITCRASQGIRTNLAWFQQKPGKAPKSLIYAASSLQSGVPSRFSGSGSGTDFTLTISSLQPEDFATYYCQQYNSYPRTFGGGTKVEIK
notes: IgG1null (human IgG1 with L234A, L235A, G237A) and human Ckappa
EC50 (read off the curve) [1]: ~0.007 µM | binding result [2]: binds | EC50 [3]: 0.0982 µM
